Changes are numbered by the printed parent chain.
Target: T1, CD10 (membrane fraction of the CD10-high-expressing human small cell lung cancer cell line SBC-3) (human, UniProt P08473 2-750)
T1 construct: whole, on cells; The antigen was a crude cell membrane fraction, not purified CD10 and not intact cells; also called CALLA; neutral endopeptidase
Test: ELISA; plate coated with membrane fraction of CD10-high SBC-3 cells; peroxidase-labelled anti-human IgG(H&L); OD415

T1 sequence (P08473 2-750): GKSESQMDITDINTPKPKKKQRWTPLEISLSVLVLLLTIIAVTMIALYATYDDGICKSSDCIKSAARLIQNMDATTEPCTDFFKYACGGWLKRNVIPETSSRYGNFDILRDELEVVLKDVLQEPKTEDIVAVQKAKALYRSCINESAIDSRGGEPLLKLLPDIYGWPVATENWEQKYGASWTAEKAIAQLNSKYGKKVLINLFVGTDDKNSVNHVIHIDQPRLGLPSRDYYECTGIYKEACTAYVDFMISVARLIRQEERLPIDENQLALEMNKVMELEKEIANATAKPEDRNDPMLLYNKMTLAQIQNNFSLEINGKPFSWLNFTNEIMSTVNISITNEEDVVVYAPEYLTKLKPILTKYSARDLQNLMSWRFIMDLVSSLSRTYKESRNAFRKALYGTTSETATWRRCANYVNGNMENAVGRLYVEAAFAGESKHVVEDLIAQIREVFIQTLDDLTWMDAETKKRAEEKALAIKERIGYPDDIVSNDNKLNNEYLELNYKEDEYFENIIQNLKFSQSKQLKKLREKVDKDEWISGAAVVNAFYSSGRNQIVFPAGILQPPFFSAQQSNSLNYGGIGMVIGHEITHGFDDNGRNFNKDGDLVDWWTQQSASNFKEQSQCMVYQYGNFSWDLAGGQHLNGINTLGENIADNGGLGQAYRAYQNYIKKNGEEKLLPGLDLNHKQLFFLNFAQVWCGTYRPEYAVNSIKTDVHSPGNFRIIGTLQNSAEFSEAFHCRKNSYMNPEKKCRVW

B1: MS705/HV0LV9 antibody (anti-CD10 CDR-grafted antibody obtained from the HV0LV9MS705 strain, FERM BP-10099) (antibody, V domains shown)
VH: EVQLVESGGGVVQPGRSLRLSCAASGFTFSSFGMHWVRQAPGKGLEWVAYISGGSYTIYYADTVKGRFTISRDNSKNTLYLQMNSLRAEDTAVYYCARSYGNFWYFDVWGQGTTVTVSS
VL: DIVMTQSPDSLAVSLGERATIACSVSSSISSSNLHWYQQKPGQSPKPWIYGTSNLASGVPVRFSGSGSGTSYFLTISSLQAEDVATYYCQQWSSYPLTFGQGTKVEIKR
notes: Whole antibody expressed from pKANTEX3061HV0LV9 (human constant regions)
B1: binds.

B2: MS705/HV0LV0 antibody (anti-CD10 CDR-grafted antibody obtained from the HV0LV0MS705 strain) (antibody, V domains shown)
VH: B1 VH
VL: B1 VL with A22N, S44P, P47L, W48L, V61D, S71D, Y72F, F73T, T86V
notes: Whole antibody expressed from pKANTEX3061HV0LV0 (human constant regions from the anti-CD10 chimeric antibody expression vector)
B2: binds.

B3: MS705/HV2LV9 antibody (anti-CD10 CDR-grafted antibody obtained from the HV2LV9MS705 strain) (antibody, V domains shown)
VH: B1 VH with G42E, R98S
VL: B1 VL
notes: Whole antibody expressed from pKANTEX3061HV2LV9 (human constant regions)
B3: binds.

From patent publication WO2006121159A1 (dated 2006)
